Here are results for 1 molecule from PMC5389901.

This data set deals with INSM1 ZF4-5 (Homo sapiens, UniProt Q01101 424-497). As to the kind of experiment: ITC. On the technique in general: ITC needs no label: the signal is the heat of the interaction.
Chain of INSM1 ZF4-5 (Q01101 424-497): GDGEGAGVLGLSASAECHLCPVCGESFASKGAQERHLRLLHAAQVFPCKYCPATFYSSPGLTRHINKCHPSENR

B1: INSM1 consensus dsDNA (dsDNA)
DNA 1: TGTCAGGGGGCA
DNA 2: TGCCCCCTGACA
A word on the Kd: it is the equilibrium constant for the complex coming apart. A low value points to tighter binding. Take B1: the Kd was determined as 21.8 µM.
